In US20230287082A1 (published 2023):

Key:
[1] = molecular target: human NKp30 (human) (UniProt O14931); experiment: BLI, immunoligand on anti-hFc tip
[2] = molecular target: NKp30 on human NK cells (human) (UniProt O14931); experiment: cell-based or functional assay
[3] = molecular target: human NKp30 (human) (UniProt O14931); experiment: BLI, ratio to ΔB7-H6_wt

NKp30 on human NK cells (human), sequence (O14931 19-201): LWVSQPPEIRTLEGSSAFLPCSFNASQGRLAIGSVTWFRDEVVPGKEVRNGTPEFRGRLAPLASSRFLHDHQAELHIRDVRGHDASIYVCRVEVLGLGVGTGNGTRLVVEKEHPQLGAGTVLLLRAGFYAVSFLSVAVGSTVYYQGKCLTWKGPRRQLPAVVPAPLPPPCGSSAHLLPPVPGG
human NKp30 (human), sequence (O14931 19-135 limits assumed): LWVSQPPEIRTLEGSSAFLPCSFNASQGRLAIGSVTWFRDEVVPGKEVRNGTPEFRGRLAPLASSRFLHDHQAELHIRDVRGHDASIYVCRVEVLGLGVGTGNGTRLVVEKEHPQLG

Kd [1] [nM] | koff [1] [s⁻¹] | kon [1] [M⁻¹ s⁻¹] | A431 EC50 with PBMC (pM) [2] [pM] | A549 EC50 with PBMC (pM) [2] [pM] | EC50 (pM), A431 lysis with PBMC [2] [pM] | EC50 improvement compared to ΔB7-H6 wt [2] [fold] | KD improvement compared to ΔB7-H6 wt [3] [fold] | x-fold KD improvement [3] [fold] | x-fold Koff improvement [3] [fold] | EC50 of tumor cell lysis, initial screening [2] [nM] | improved potency compared to wild-type ΔB7-H6, initial screening [2] [fold] | A431 EC50 with NK cells (pM) [2] [pM] | A549 EC50 with NK cells (pM) [2] [pM] | enhanced potency compared to the wild-type ΔB7-H6 immunoligand, initial screening [2] [fold] | EC50 of A431 lysis with PBMC, initial screening [2] [nM] | increase in potency with purified NK cells on A431 compared to wild-type [2] [fold] | Binder | half-maximal killing activity, initial screening [2] [pM]
34.5 | 0.0322 | 933000 | 150 | 556 | 21 | 41 | 11.9 | 11.9 | 5.2 | – | – | – | – | – | – | – | ΔB7-H6_S3#14-SEED-PGLALA (bispecific antibody, part only; not given: SEED Fc chains and hu225 Fab, part only) chain, part: DLKVEMMAGGTQITPLNDNVTIFCNIFYSQPLNITTMGITWFWKSLTFDKEVKVFEFYGDHQEAFRPGAIVSPWRLKSGDASLRLPGIQLEEAGEYRCEVVVTPYKAQGTVQLEVVASPAS | –
83 | 0.0556 | 669000 | 60.2 | 356 | 19.2 | 45 | 4.9 | 4.9 | 3 | 0.0276 | 41 | – | – | – | – | – | ΔB7-H6_S3#27-SEED-PGLALA (bispecific antibody, part only; not given: SEED Fc chains and hu225 EGFR Fab, part only) chain, part: DLKVEMMAGGTQITPLNDNVTIFCNIFYSQPLNITTMGITWFWKSLTFDKEVKVFEFWGDHQEAFRPGAIVSPWRLKSGDASLRLPGIQLEEAGEYRCEVIVTPYKAQGTVQLEVVASPAS | –
43.6 | 0.0269 | 616000 | 34.8 | 224 | 17.5 | 50 | 9.4 | 9.4 | 6.3 | – | – | – | – | – | – | – | ΔB7-H6_S3#31-SEED-PGLALA (bispecific antibody, part only; not given: SEED Fc chains and hu225 EGFR Fab, part only) chain, part: DLKVEMMAGGTQITPLNDNVTIFCNIFYSQPLNITIMGITWFWKSLTFDKEVKVFEFYGDHQEAFRPGAIVSPWRLKSGDASLRLPGIQLEEAGEYRCEVVVTPLKAQGTVQLEVVASPAS | 25.1
65.2 | 0.0486 | 745000 | 37.8 | 135 | 9.9 | 88 | 6.3 | 6.3 | 3.5 | – | – | 4.25 | 34.6 | 187 | – | – | ΔB7-H6_S3#25-SEED-PGLALA (bispecific antibody, part only; not given: SEED Fc chains and hu225 Fab, part only) chain, part: DLKVEMMAGGTQITPLNDNVTIFCNIFYSQPLNITWMGITWFWKSLTFDKEVKVFEFYGDHQEAFRPGAIVSPWRLKSGDASLRLPGIQLEEAGEYRCEVVVTPYKAQGTVQLEVVASPAS | 6
409 | 0.168 | 412000 | 1840 | – | 868 | 1 | 1 | – | – | – | – | 245 | – | – | 1.1 | – | ΔB7-H6_wt-SEED-PGLALA (bispecific antibody, part only; not given: SEED Fc chains and hu225 Fab, part only) chain, part: DLKVEMMAGGTQITPLNDNVTIFCNIFYSQPLNITSMGITWFWKSLTFDKEVKVFEFFGDHQEAFRPGAIVSPWRLKSGDASLRLPGIQLEEAGEYRCEVVVTPLKAQGTVQLEVVASPAS | –
28.7 | 0.0289 | 1.01e+06 | 87.3 | 206 | 29.1 | 30 | 14.3 | 14.3 | 5.8 | – | – | – | – | – | – | – | ΔB7-H6_S3#16-SEED-PGLALA (bispecific antibody, part only; not given: SEED Fc chains and hu225 Fab, part only) chain, part: DLKVEMMAGGTQITPLNDNVTIFCNIFYSQPLNITLMGITWFWKSLTFDKEVKVFEFYGDHQEAFRPGAIVSPWRLKSGDASLRLPGIQLEEAGEYRCEVVVTPYKAQGTVQLEVVASPAS | –
188 | 0.0766 | 409000 | – | – | – | – | – | – | – | – | – | – | – | – | – | – | ΔB7-H6_S3#32-SEED-PGLALA (bispecific antibody, part only; not given: SEED Fc chains and hu225 EGFR Fab, part only) chain, part: DLKVEMMAGGTQITPLNDNVTIFCNIFYSQPLNITEMGITWFWKSLTFDKEVKVFEFWGDHQEAFRPGAIVSPWRLKSGDASLRLPGIQLEEAGEYRCEVVVTPVKAQGTVQLEVVASPAS | –
12.4 | 0.0101 | 817000 | 29.9 | 133 | 8.7 | 100 | 33 | 33 | 16.6 | – | – | 2.8 | 31.3 | – | – | 87 | ΔB7-H6_S3#15-SEED-PGLALA (bispecific antibody, part only; not given: SEED Fc chains and hu225 Fab, part only) chain, part: DLKVEMMAGGTQITPLNDNVTIFCNIFYSQPLNITIMGITWFWKSLTFDKEVKVFEFWGDHQEAFRPGAIVSPWRLKSGDASLRLPGIQLEEAGEYRCEVVVTPYKAQGTVQLEVVASPAS | –
9.06 | 0.0136 | 1.5e+06 | 51.1 | 132 | 19.8 | 44 | 45.1 | 45.1 | 12.4 | – | – | 4.31 | 42.5 | – | – | – | ΔB7-H6_S3#18-SEED-PGLALA (bispecific antibody, part only; not given: SEED Fc chains and hu225 Fab, part only) chain, part: DLKVEMMAGGTQITPLNDNVTIFCNIFYSQPLNITYMGITWFWKSLTFDKEVKVFEFWGDHQEAFRPGAIVSPWRLKSGDASLRLPGIQLEEAGEYRCEVVVTPYKAQGTVQLEVVASPAS | –
61.6 | 0.0642 | 1.04e+06 | – | – | – | – | – | – | – | – | – | – | – | – | – | – | ΔB7-H6_S3#20-SEED-PGLALA (bispecific antibody, part only; not given: SEED Fc chains and hu225 Fab, part only) chain, part: DLKVEMMAGGTQITPLNDNVTIFCNIFYSQPLNITHMGITWFWKSLTFDKEVKVFEFWGDHQEAFRPGAIVSPWRLKSGDASLRLPGIQLEEAGEYRCEVFVTPLKAQGTVQLEVVASPAS | –

Second part, the binder before the results:

Binder | Kd [1] [nM] | koff [1] [s⁻¹] | kon [1] [M⁻¹ s⁻¹] | A431 EC50 with PBMC (pM) [2] [pM] | A549 EC50 with PBMC (pM) [2] [pM] | EC50 (pM), A431 lysis with PBMC [2] [pM] | EC50 improvement compared to ΔB7-H6 wt [2] [fold] | KD improvement compared to ΔB7-H6 wt [3] [fold] | x-fold KD improvement [3] [fold] | x-fold Koff improvement [3] [fold] | EC50 of tumor cell lysis, initial screening [2] [nM] | improved potency compared to wild-type ΔB7-H6, initial screening [2] [fold] | A431 EC50 with NK cells (pM) [2] [pM] | A549 EC50 with NK cells (pM) [2] [pM] | enhanced potency compared to the wild-type ΔB7-H6 immunoligand, initial screening [2] [fold] | EC50 of A431 lysis with PBMC, initial screening [2] [nM] | increase in potency with purified NK cells on A431 compared to wild-type [2] [fold] | half-maximal killing activity, initial screening [2] [pM]
ΔB7-H6_S2#6-SEED-PGLALA (bispecific antibody, part only; not given: SEED Fc chains and hu225 EGFR Fab, part only) chain, part: DLKVEMMAGGTQITPLNDNVTIFCNIFYFQPLNITEMGITWFWKSLTFDKEVKVFEFFGDHQEAFRPGAIVSPWRLKSGDASLRLPGIQLEEAGEYRCEVIVTPLKAQGTVQLEVVASPAS | 285 | 0.376 | 1.32e+06 | – | – | – | – | – | – | – | – | – | – | – | – | – | – | –
ΔB7-H6_S2#4-SEED-PGLALA (bispecific antibody, part only; not given: SEED Fc chains and hu225 Fab, part only) chain, part: DLKVEMMAGGTQITPLNDNVTIFCNIFYSQPLNITHMGITWFWKSLTFDKEVKVFEFYADHQEAIRPGAIVSPWRLKSGDASLRLPGIQLEEAGEYRCEVVVTPYKAQGTVQLEVVASPAS | 147 | 0.122 | 830000 | – | – | – | – | – | – | – | – | – | – | – | – | – | – | –
ΔB7-H6_S2#12-SEED-PGLALA (bispecific antibody, part only; not given: SEED Fc chains and hu225 Fab, part only) chain, part: DLKVEMMAGGTQITPLNDNVTIFCNIFYSQPLNITHMGITWLWKSLTFDKEVKVFEFYGDHQEAFRPGAIVSPWRLKSGDASLRLPGIQLEEAGEYRCEVVVTPLKAQGTVQLEVVASPAS | 291 | 0.162 | 556000 | – | – | – | – | – | – | – | – | – | – | – | – | – | – | –
ΔB7-H6_S2#5-SEED-PGLALA (bispecific antibody, part only; not given: SEED Fc chains and hu225 Fab, part only) chain, part: DLKVEMMAGGTQITPLNDNVTIFCNIFYSQPLNITSMGITWLWKSLTFDKEVKVFEFWGDHQEAFRPGAIVSPWRLKSGDASLRLPGIQLEEAGEYRCEVFVTPYKAQGTVQLEVVASPAS | 253 | 0.148 | 585000 | – | – | – | – | – | – | – | – | – | – | – | – | – | – | –
ΔB7-H6_S2#11-SEED-PGLALA (bispecific antibody, part only; not given: SEED Fc chains and hu225 Fab, part only) chain, part: DLKVEMMAGGTQITPLNDNVTIFCNIFYSQPLNITTMGITWFWKSLTFDKEVKVFEFWQDHQEAFRPGAIVSPWRLKSGDASLRLPGIQLEEAGEYRCEVVVTPLKAQGTVQLEVVASPAS | 234 | 0.115 | 491000 | – | – | 172 | 5 | 1.7 | 1.7 | 1.5 | – | – | – | – | – | – | – | –
ΔB7-H6_S2#13-SEED-PGLALA (bispecific antibody, part only; not given: SEED Fc chains and hu225 Fab, part only) chain, part: DLKVEMMAGGTQITPLNDNVTIFCNIFYSQPLNITSMGITWFWKSLTFDKEVKVFEFWGDHQEAFRPGAIVSPWRLKSGDASLRLPGIQLEEAGEYRCEVVVTPYKAQGTVQLEVVASPAS | 205 | 0.0842 | 410000 | – | – | 171 | 5 | 2 | 2 | 2 | – | – | – | – | – | – | – | –
ΔB7-H6_S3#4-SEED-PGLALA (bispecific antibody, part only; not given: SEED Fc chains and hu225 Fab, part only) chain, part: DLKVEMMAGGTQITPLNDNVTIFCNIFYSQPLNITIMGITWFWKSLTFDKEVKVFEFWGDHQEAFRPGAIVSPWRLKSGDASLRLPGIQLEEAGEYRCEVVVTPLKAQGTVQLEVVASPAS | 23.9 | 0.0149 | 621000 | – | – | – | – | – | – | – | – | – | – | – | – | – | – | –
ΔB7-H6_S2#14-SEED-PGLALA (bispecific antibody, part only; not given: SEED Fc chains and hu225 Fab, part only) chain, part: DLKVEMMAGGTQITPLNDNVTIFCNIFYSQPLNITTMGITWFWKSLTFDKEVKVFEFFGDHQEAFRPGAIVSPWRLKSGDASLRLPGIQLEEAGEYRCEVVVTPYKAQGTVQLEVVASPAS | 217 | 0.124 | 570000 | – | – | 158 | 5 | 1.9 | 1.9 | 1.4 | – | – | – | – | – | – | – | –
ΔB7-H6_S3#2-SEED-PGLALA (bispecific antibody, part only; not given: SEED Fc chains and hu225 EGFR Fab, part only) chain, part: DLKVEMMAGGTQITPLNDNVTIFCNIFYSQPLNITWMGITWFWKSLTFDKEVKVFEFWGDHQEAFRPGAIVSPWRLKSGDASLRLPGIQLEEAGEYRCEVVVTPYKAQGTVQLEVVASPAS | 11.7 | 0.0122 | 1.04e+06 | – | – | – | – | – | – | – | – | – | – | – | – | – | – | –
ΔB7-H6_S2#10-SEED-PGLALA (bispecific antibody, part only; not given: SEED Fc chains and hu225 EGFR Fab, part only) chain, part: DLKVEMMAGGTQITPLNDNVTIFCNIFYSQPLNITLMGITWFWKSLTFDKEVKVFEFWGDHQEAFRPGAIVSPWGLKSGDASLRLPGIQLEEAGEYRCEVVVTPLKAQGTVQLEVVASPAS | 187 | 0.111 | 597000 | – | – | 122 | 7 | 2.2 | 2.2 | 1.5 | – | – | – | – | – | – | – | –
